Experimental data from paper PMC7788559.

Biological target: MRN (MRE11-RAD50-NBS1) wild type (Homo sapiens, UniProt P49959;Q92878;O60934 1-708;1-1312;1-754)
Test: pull-down, immunoblot

Chain of MRN (MRE11-RAD50-NBS1) wild type (P49959 whole entry, chain 1 of 3): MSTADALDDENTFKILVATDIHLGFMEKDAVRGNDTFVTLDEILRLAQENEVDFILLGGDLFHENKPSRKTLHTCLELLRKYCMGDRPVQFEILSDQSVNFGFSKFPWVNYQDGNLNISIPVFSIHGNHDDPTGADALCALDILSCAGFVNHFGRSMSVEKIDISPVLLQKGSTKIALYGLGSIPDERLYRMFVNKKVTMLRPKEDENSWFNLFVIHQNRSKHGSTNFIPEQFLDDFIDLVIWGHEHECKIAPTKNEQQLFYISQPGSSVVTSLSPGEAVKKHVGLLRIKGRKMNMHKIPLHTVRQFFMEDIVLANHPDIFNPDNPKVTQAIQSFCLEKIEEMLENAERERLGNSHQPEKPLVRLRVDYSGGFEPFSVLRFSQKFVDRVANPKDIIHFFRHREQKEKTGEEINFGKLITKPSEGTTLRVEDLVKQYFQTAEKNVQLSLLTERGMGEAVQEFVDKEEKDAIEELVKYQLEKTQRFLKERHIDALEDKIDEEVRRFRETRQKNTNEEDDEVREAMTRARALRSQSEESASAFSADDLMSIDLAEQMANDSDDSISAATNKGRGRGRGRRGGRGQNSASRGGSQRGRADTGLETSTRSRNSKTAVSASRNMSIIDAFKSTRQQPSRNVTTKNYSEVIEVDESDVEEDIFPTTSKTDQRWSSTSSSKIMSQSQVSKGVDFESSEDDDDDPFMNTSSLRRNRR
Chain of MRN (MRE11-RAD50-NBS1) wild type (Q92878 whole entry, chain 2 of 3): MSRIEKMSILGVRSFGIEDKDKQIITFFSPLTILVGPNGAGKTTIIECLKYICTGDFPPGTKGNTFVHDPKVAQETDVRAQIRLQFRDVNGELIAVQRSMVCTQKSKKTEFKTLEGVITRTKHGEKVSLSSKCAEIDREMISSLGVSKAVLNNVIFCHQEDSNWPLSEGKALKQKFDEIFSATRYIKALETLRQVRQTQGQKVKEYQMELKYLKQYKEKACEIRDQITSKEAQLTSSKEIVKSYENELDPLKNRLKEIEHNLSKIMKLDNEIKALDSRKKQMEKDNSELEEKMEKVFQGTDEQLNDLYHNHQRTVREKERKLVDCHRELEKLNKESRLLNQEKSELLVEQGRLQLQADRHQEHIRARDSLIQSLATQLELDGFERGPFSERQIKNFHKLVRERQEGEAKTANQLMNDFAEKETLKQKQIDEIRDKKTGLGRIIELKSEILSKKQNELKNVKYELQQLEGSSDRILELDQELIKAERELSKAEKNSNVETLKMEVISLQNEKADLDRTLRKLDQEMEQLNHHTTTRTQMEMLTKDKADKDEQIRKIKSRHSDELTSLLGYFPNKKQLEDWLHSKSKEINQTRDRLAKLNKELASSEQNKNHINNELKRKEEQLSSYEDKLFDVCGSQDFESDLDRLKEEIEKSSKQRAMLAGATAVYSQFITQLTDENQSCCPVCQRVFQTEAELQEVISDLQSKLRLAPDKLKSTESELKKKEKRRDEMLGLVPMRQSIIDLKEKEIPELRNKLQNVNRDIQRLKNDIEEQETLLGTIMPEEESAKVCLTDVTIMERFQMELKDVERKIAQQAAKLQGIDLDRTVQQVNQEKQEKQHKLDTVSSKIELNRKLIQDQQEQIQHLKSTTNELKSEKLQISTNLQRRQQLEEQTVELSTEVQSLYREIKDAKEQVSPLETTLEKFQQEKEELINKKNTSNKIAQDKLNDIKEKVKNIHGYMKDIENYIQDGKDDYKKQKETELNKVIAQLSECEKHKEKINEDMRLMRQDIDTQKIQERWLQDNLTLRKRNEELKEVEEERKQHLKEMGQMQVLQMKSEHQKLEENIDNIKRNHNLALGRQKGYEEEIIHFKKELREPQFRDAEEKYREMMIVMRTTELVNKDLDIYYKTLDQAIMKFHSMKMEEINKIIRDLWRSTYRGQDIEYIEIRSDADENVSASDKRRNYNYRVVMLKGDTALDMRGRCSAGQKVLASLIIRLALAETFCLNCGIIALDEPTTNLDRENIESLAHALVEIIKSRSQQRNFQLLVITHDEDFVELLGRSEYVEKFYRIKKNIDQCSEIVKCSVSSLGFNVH
Chain of MRN (MRE11-RAD50-NBS1) wild type (O60934 whole entry, chain 3 of 3): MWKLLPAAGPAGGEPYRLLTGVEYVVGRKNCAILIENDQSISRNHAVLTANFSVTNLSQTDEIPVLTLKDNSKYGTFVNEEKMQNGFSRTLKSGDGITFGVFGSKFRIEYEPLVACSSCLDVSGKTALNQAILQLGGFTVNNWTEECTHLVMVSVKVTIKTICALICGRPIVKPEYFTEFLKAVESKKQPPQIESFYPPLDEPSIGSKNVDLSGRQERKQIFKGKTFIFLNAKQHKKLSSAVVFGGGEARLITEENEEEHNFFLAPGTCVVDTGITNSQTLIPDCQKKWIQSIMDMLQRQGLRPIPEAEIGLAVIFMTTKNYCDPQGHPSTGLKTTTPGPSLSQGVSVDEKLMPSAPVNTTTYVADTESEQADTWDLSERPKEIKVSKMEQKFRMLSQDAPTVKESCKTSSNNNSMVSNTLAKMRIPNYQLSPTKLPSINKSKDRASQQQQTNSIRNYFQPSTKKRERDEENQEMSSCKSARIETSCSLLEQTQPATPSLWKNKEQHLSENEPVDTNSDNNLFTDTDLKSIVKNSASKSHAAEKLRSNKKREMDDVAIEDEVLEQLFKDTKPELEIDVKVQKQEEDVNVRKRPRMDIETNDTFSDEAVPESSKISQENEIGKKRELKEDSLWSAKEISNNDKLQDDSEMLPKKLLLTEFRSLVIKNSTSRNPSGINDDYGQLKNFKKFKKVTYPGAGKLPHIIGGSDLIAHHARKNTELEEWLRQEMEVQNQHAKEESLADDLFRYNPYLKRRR

B1: Sj60mer blunt dsDNA (dsDNA)
DNA 1: TTGTAAAACGACGGCCAGTGAATTCATCATCAATAATATACCTTATTTTGGGATCTATGC
DNA 2: GCATAGATCCCAAAATAAGGTATATTATTGATGATGAATTCACTGGCCGTCGTTTTACAA
Question: Does B1 bind?
Answer: binds
